Consider one molecule from publication PMC5683673.

The assay deals with purified recombinant human dimeric DPP-4 protein (dipeptidyl peptidase-4) (human), P27487. Kind of assay: SEC. To be noted: remark: other sources report otherwise.

B1: purified recombinant human dimeric DPP-4 protein (dipeptidyl peptidase-4), P27487 29-766 (enzyme)
chain: NKGTDDATADSRKTYTLTDYLKNTYRLKLYSLRWISDHEYLYKQENNILVFNAEYGNSSVFLENSTFDEFGHSINDYSISPDGQFILLEYNYVKQWRHSYTASYDIYDLNKRQLITEERIPNNTQWVTWSPVGHKLAYVWNNDIYVKIEPNLPSYRITWTGKEDIIYNGITDWVYEEEVFSAYSALWWSPNGTFLAYAQFNDTEVPLIEYSFYSDESLQYPKTVRVPYPKAGAVNPTVKFFVVNTDSLSSVTNATSIQITAPASMLIGDHYLCDVTWATQERISLQWLRRIQNYSVMDICDYDESSGRWNCLVARQHIEMSTTGWVGRFRPSEPHFTLDGNSFYKIISNEEGYRHICYFQIDKKDCTFITKGTWEVIGIEALTSDYLYYISNEYKGMPGGRNLYKIQLSDYTKVTCLSCELNPERCQYYSVSFSKEAKYYQLRCSGPGLPLYTLHSSVNDKGLRVLEDNSALDKMLQNVQMPSKKLDFIILNETKFWYQMILPPHFDKSKKYPLLLDVYAGPCSQKADTVFRLNWATYLASTENIIVASFDGRGSGYQGDKIMHAINRRLGTFEVEDQIEAARQFSKMGFVDNKRIAIWGWSYGGYVTSMVLGSGSGVFKCGIAVAPVSRWEYYDSVYTERYMGLPTPEDNLDHYRNSTVMSRAENFKQVEYLLIHGTADDNVHFQQSAQISKALVDVGVDFQAMWYTDEDHGIASSTAHQHIYTHMSHFIKQCFSLP
Turning to B1, the percent present as dimer came out at 85%.
